Reference: article PMC9517163

Target: minke whale ACE2, mFc-tagged (minke whale)
Assay: SPR

In the case of “SARS-CoV-2 receptor-binding domain (RBD), prototype (from UniProt P0DTC2) (domain or fragment)”, the Kd is reported as 156 nM.
